From the supplement of paper PMC7877785
± gives the uncertainty stated by the source.

Assay: self-splicing fitness, log relative to wild type (ln ratio); higher = more splicing; Tetrahymena group I intron in knt gene, E. coli kanamycin selection, DiMSum; sequences stand for … in CUCUCU…GGAGGGAAAAGUUAUCAGGCAUGCACCUGGUAGCUAGUCUUUAAACCAAUAGAUUGCAUCGGUUUAAAAGGCAAGACCGUCAAAUUGCGGGAAAGGGGUCAACAGCCGUUCAGUACCAAGUCUCAGGGGAAACUUUGAGAUGGCCUUGCAAAGGGUAUGGUAAUAAGCUGACGGACAUGGUCCUAACCACGCAGCCAAGUCCUAAGUCAACAGAUCUUCUGUUGAUAUGGAUGCAGUUCACAGACUAAAUGUCGGUCGGGGAAGAUGUAUUCUUCUCAUAAGAUAUAGUCGGACCUCUCCUUAAUGGGAGCUAGCGGAUGAAGUGAUGCAACACUGGAGCCGCUGGGAACUAAUUUGUAUGCGAAAGUAUAUUGAUUAGUUUUGGAGUACUCGUGGUCG
In short: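 Library with all eight P1ex-region intron nucleotides randomised, intron inside the knt kanamycin-resistance gene on pET-22b(+), in E. coli BL21(DE3). Cells grew overnight at 37°C or 30°C on LB agar with or without 25 μg/mL kanamycin (plus 100 μg/mL carbenicillin, 50 μM IPTG, 0.2% rhamnose), in six replicate transformations. Pooled colonies were amplicon-sequenced on Illumina HiSeq 2500. DiMSum fitness is the error-weighted combination of wild-type-normalised replicate fold changes, kanamycin versus none.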

| Sequence | self-splicing fitness (ln) (30 °C) | self-splicing fitness (ln) (37 °C) |
| --- | --- | --- |
| ACAGAGCAAUAUUACGGCUG | -0.984 ± 0.096 | -0.796 ± 0.13 |
| ACAGAGCAAUAUUACGGGAU | -3.52 ± 0.11 | -3.03 ± 0.15 |
| ACAGAGCAAUAUUACGGUAA | -3.43 ± 0.25 | -2.26 ± 0.23 |
| ACAGAGCAAUAUUACGUAGU | -1.7 ± 0.14 | -2.87 ± 0.21 |
| ACAGAGCAAUAUUACGUAUG | -2.91 ± 0.17 | -3.39 ± 0.37 |
| ACAGAGCAAUAUUACGUCAG | -3.02 ± 0.13 | -2.43 ± 0.2 |
| ACAGAGCAAUAUUACGUGCU | -4.27 ± 0.37 | -2.48 ± 0.41 |
| ACAGAGCAAUAUUACGUGGU | -3.82 ± 0.2 | -2.37 ± 0.21 |
| ACAGAGCAAUAUUACGUUGG | -2.73 ± 0.16 | -3.57 ± 0.19 |
| ACAGAGCAAUAUUACGUUUU | -3.47 ± 0.24 | -3.26 ± 0.32 |
| ACAUAGCAAUAUUACGAAGA | -3.19 ± 0.18 | -2.72 ± 0.16 |
| ACAUAGCAAUAUUACGACGG | -1 ± 0.091 | -0.32 ± 0.12 |
| ACAUAGCAAUAUUACGAGGC | -4.03 ± 0.36 | -2.2 ± 0.32 |
| ACAUAGCAAUAUUACGAUUU | -0.687 ± 0.062 | -0.157 ± 0.081 |
| ACAUAGCAAUAUUACGCAAA | -3.29 ± 0.16 | -2.25 ± 0.14 |
| ACAUAGCAAUAUUACGCACA | -0.98 ± 0.099 | -0.0165 ± 0.12 |
| ACAUAGCAAUAUUACGCACG | -2.07 ± 0.2 | -1.01 ± 0.15 |
| ACAUAGCAAUAUUACGCACU | -0.38 ± 0.083 | 0.676 ± 0.1 |
| ACAUAGCAAUAUUACGCCUU | -1.25 ± 0.083 | -0.057 ± 0.085 |
| ACAUAGCAAUAUUACGCGCC | -0.408 ± 0.16 | 0.199 ± 0.26 |
| ACAUAGCAAUAUUACGCUAU | -2.9 ± 0.13 | -2.38 ± 0.2 |
| ACAUAGCAAUAUUACGCUGC | -2.01 ± 0.22 | -0.747 ± 0.15 |
| ACAUAGCAAUAUUACGCUGG | -2.36 ± 0.11 | -1.46 ± 0.12 |
| ACAUAGCAAUAUUACGGCAU | -1.06 ± 0.072 | -0.486 ± 0.079 |
| ACAUAGCAAUAUUACGGCGG | -1.04 ± 0.049 | -0.52 ± 0.072 |

| Sequence | self-splicing fitness (ln) (30 °C) | self-splicing fitness (ln) (37 °C) |
| --- | --- | --- |
| ACAUAGCAAUAUUACGGGAU | -1.88 ± 0.1 | -0.904 ± 0.12 |
| ACAUAGCAAUAUUACGGGUA | -2.8 ± 0.19 | -2.35 ± 0.14 |
| ACAUAGCAAUAUUACGGGUC | -3.93 ± 0.25 | -3.24 ± 0.28 |
| ACAUAGCAAUAUUACGGUCC | -1.91 ± 0.087 | -1.77 ± 0.11 |
| ACAUAGCAAUAUUACGUAAA | -1.66 ± 0.12 | -1.75 ± 0.21 |
| ACAUAGCAAUAUUACGUACC | -0.809 ± 0.17 | 0.0877 ± 0.2 |
| ACAUAGCAAUAUUACGUAGC | -2.78 ± 0.13 | -2.04 ± 0.19 |
| ACAUAGCAAUAUUACGUAGG | -3.02 ± 0.13 | -1.84 ± 0.12 |
| ACAUAGCAAUAUUACGUCUG | -1.24 ± 0.071 | -0.845 ± 0.09 |
| ACCAAGCAAUAUUACGAAAU | -2.89 ± 0.12 | -2.08 ± 0.15 |
| ACCAAGCAAUAUUACGAACU | -0.54 ± 0.061 | -0.819 ± 0.08 |
| ACCAAGCAAUAUUACGACAA | -2.14 ± 0.15 | -1.11 ± 0.12 |
| ACCAAGCAAUAUUACGACAU | -1.04 ± 0.011 | -0.296 ± 0.032 |
| ACCAAGCAAUAUUACGAGUC | -3.65 ± 0.2 | -1.25 ± 0.15 |
| ACCAAGCAAUAUUACGAUUA | -2.23 ± 0.11 | -1.03 ± 0.085 |
| ACCAAGCAAUAUUACGAUUU | -1.51 ± 0.041 | -1.26 ± 0.054 |
| ACCAAGCAAUAUUACGCAUA | -1.77 ± 0.068 | -1.44 ± 0.073 |
| ACCAAGCAAUAUUACGCCAC | -1.48 ± 0.31 | -2.12 ± 0.3 |
| ACCAAGCAAUAUUACGCGCU | -0.723 ± 0.07 | 0.206 ± 0.089 |
| ACCAAGCAAUAUUACGCUAA | -3.3 ± 0.16 | -2.33 ± 0.14 |
| ACCAAGCAAUAUUACGCUCC | -1.35 ± 0.17 | -0.621 ± 0.25 |
| ACCAAGCAAUAUUACGGAAA | -3.14 ± 0.18 | -1.9 ± 0.13 |
| ACCAAGCAAUAUUACGGCUA | -0.574 ± 0.065 | -0.0302 ± 0.07 |
| ACCAAGCAAUAUUACGGUAU | -3.45 ± 0.13 | -0.475 ± 0.094 |
| ACCAAGCAAUAUUACGUGAC | -3.55 ± 0.13 | -1.99 ± 0.11 |

| Sequence | self-splicing fitness (ln) (30 °C) | self-splicing fitness (ln) (37 °C) |
| --- | --- | --- |
| ACCAAGCAAUAUUACGUGCU | -1.7 ± 0.096 | -0.864 ± 0.096 |
| ACCCAGCAAUAUUACGAAAC | -2.77 ± 0.12 | -1.04 ± 0.15 |
| ACCCAGCAAUAUUACGAAAU | -1.42 ± 0.07 | -1.21 ± 0.083 |
| ACCCAGCAAUAUUACGAAGA | -1.74 ± 0.12 | -1.36 ± 0.15 |
| ACCCAGCAAUAUUACGAAGC | -0.907 ± 0.069 | -0.523 ± 0.072 |
| ACCCAGCAAUAUUACGACGG | -1.39 ± 0.078 | -0.9 ± 0.086 |
| ACCCAGCAAUAUUACGAGGG | -3.43 ± 0.15 | -2.47 ± 0.17 |
| ACCCAGCAAUAUUACGCACU | -0.41 ± 0.064 | 0.0872 ± 0.077 |
| ACCCAGCAAUAUUACGCAGU | -0.609 ± 0.055 | -0.106 ± 0.066 |
| ACCCAGCAAUAUUACGCAUC | -1.33 ± 0.076 | 0.0782 ± 0.098 |
| ACCCAGCAAUAUUACGCGUG | -3.53 ± 0.17 | -1.9 ± 0.13 |
| ACCCAGCAAUAUUACGCUAC | -4.01 ± 0.27 | -2.38 ± 0.19 |
| ACCCAGCAAUAUUACGCUCC | -0.481 ± 0.099 | -0.338 ± 0.14 |
| ACCCAGCAAUAUUACGCUUU | -0.704 ± 0.049 | 0.0854 ± 0.064 |
| ACCCAGCAAUAUUACGGACC | -0.974 ± 0.073 | -0.347 ± 0.089 |
| ACCCAGCAAUAUUACGGCCG | -2.81 ± 0.15 | -2.6 ± 0.19 |
| ACCCAGCAAUAUUACGGGAG | -1.23 ± 0.059 | -1.05 ± 0.082 |
| ACCCAGCAAUAUUACGGUAC | -2.51 ± 0.081 | -0.741 ± 0.078 |
| ACCCAGCAAUAUUACGUAUC | -2.25 ± 0.077 | -1.63 ± 0.092 |
| ACCCAGCAAUAUUACGUCCA | -1.27 ± 0.12 | -0.696 ± 0.16 |
| ACCCAGCAAUAUUACGUCGG | -2.15 ± 0.073 | -0.593 ± 0.088 |
| ACCCAGCAAUAUUACGUCUG | -3.16 ± 0.12 | -2.79 ± 0.14 |
| ACCCAGCAAUAUUACGUGAC | -1.07 ± 0.047 | -1.25 ± 0.085 |
| ACCCAGCAAUAUUACGUGCC | -1.98 ± 0.08 | -0.963 ± 0.1 |
